결합력 % data for one substance are collected here from KR20220167207A.

In assay [1] the target is CADM1 on small cell lung cancer cell lines H146 and H69 (human) (UniProt Q9BY67). Description: flow cytometry, PE anti-HA antibody alone (control) on H69 cells.
In assay [2] the target is CADM1 peptide expressed on SBC-5 small cell lung cancer cells (CADM1-SBC-5; peptide - transmembrane domain - GFP) (human). Description: flow cytometry, PE anti-HA antibody alone (control) on SBC-5 cells expressing the CADM1 peptide.
For assay [3], the target named is comparison structure: the same structure without the CADM1 peptide (Myc tag, hinge, transmembrane domain, GFP) on cells. Description: flow cytometry, PE anti-HA antibody alone (control) on cells with the structure without the peptide.
In assay [4] the target is T1, CADM1 peptide structure expressed on cells (CADM1 peptide, Myc tag, hinge, transmembrane domain, GFP) (human).
T1 sequence: DSRAGEEGSIRAVDH
Description: flow cytometry, PE anti-HA antibody alone (control) on cells with the CADM1 peptide structure. On the technique in general: Flow cytometry measures light scatter and fluorescence of single cells or particles in a stream.

Assay [5] has as its target CADM1 on small cell lung cancer cell lines H146 and H69 (human) (UniProt Q9BY67). Description: flow cytometry, PE anti-HA antibody alone (control) on H146 cells.

For the substance “PE-conjugated HA antibody (16B12 clone, Biolegend, Cat No. 901518)”, the 결합력 % came out at 2.2% in assay [1]; 0.3% in assay [2]; 0.1% in assay [3]; 0% in assay [4]; 2.1% in assay [5].
